We go through one molecule from patent publication US20210171647A1 (WUXI BIOLOGICS SHANGHAI, published 2021).

Common to all, as to assay: ELISA, antibody coated, OX40-ECD.His mutant supernatant; relative to silent alanine substitutions;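 further: captured OX40 mutant protein detected with HRP-labelled anti-His antibody, absorbance read-out, scaled to the mean signal of control mutants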
The target in one experiment is T1, human OX40-ECD.His W86A (human, UniProt P43489 29-214).
T1 construct: extracellular domain; not shown: C-terminal His-tag
T1 sequence (looked up): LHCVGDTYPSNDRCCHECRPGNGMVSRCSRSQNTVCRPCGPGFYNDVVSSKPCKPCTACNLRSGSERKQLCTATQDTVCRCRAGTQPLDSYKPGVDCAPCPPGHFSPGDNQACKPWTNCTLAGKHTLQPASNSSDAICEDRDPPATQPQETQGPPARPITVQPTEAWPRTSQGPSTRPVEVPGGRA

For another experiment, the target named is T2, human OX40-ECD.His A150G (human, UniProt P43489 29-214).
T2 construct: extracellular domain; not shown: C-terminal His-tag
T2 sequence (looked up): T1 sequence (looked up) with A58W, A122G

In a further experiment the target is T3, human OX40-ECD.His L149A (human, UniProt P43489 29-214).
T3 construct: extracellular domain; not shown: C-terminal His-tag
T3 sequence (looked up): T1 sequence (looked up) with A58W, L121A

The target of a further experiment is T4, human OX40-ECD.His V53A (human, UniProt P43489 29-214).
T4 construct: extracellular domain; not shown: C-terminal His-tag
T4 sequence (looked up): T1 sequence (looked up) with V25A, A58W

For the next experiment, the target named is T5, human OX40-ECD.His W144A (human, UniProt P43489 29-214).
T5 construct: extracellular domain; not shown: C-terminal His-tag
T5 sequence (looked up): T1 sequence (looked up) with A58W, W116A

The next experiment deals with T6, human OX40-ECD.His L116A (human, UniProt P43489 29-214).
T6 construct: extracellular domain; not shown: C-terminal His-tag
T6 sequence (looked up): T1 sequence (looked up) with A58W, L88A

A further experiment concerns the target T7, human OX40-ECD.His N88A (human, UniProt P43489 29-214).
T7 construct: extracellular domain; not shown: C-terminal His-tag
T7 sequence (looked up): T1 sequence (looked up) with A58W, N60A

Another experiment deals with T8, human OX40-ECD.His D168A (human, UniProt P43489 29-214).
T8 construct: extracellular domain; not shown: C-terminal His-tag
T8 sequence (looked up): T1 sequence (looked up) with A58W, D140A

A further experiment addresses T9, human OX40-ECD.His A173G (human, UniProt P43489 29-214).
T9 construct: extracellular domain; not shown: C-terminal His-tag
T9 sequence (looked up): T1 sequence (looked up) with A58W, A145G

The next experiment deals with T10, human OX40-ECD.His R41A (human, UniProt P43489 29-214).
T10 construct: extracellular domain; not shown: C-terminal His-tag
T10 sequence (looked up): T1 sequence (looked up) with R13A, A58W

Residue numbers refer to the chain shown, from its start.

Protocol for human OX40-ECD.His A150G: (§1) After interacting with the supernatant that contains quantified OX40 mutants or human OX40-ECD.His protein, HRP conjugated anti-His antibody (1:5000, GenScript-A00612, CHN) was added as detection antibody. Absorbance was normalized according to the average of control mutants.
Protocol for human OX40-ECD.His A173G: as §1
Protocol for human OX40-ECD.His D168A: as §1
Protocol for human OX40-ECD.His L116A: as §1
Protocol for human OX40-ECD.His L149A: as §1
Protocol for human OX40-ECD.His N88A: as §1
Protocol for human OX40-ECD.His R41A: as §1
Protocol for human OX40-ECD.His V53A: as §1
Protocol for human OX40-ECD.His W144A: as §1
Protocol for human OX40-ECD.His W86A: as §1

B1: 1.134.9-u1-IgG1L (antibody, V domains shown)
VH: QVQLQESGPGLVKPSGTLSLTCAVSGGSISSYNWWSWVRQPPGKGLEWIGEIYHGGNTNYNPSLKSRVTMSVDNSKNQFSLKLSSVTAADTAVYYCARAPGDWGGSPYFDFWGQGTLVTVSS
VL: SSELTQDPAVSVALGQTVRITCQGDNLRTYYASWYQQKPGQAPILLIYGRNKRPSGIPDRFSGSSSGNTASLTITGAQAEDEAAYYCNSRDSSGNPVVFGGGTKLTVL
notes: fully human IgG1, lambda
For the molecule B1, the “Fold Change” value with human OX40-ECD.His W86A was 0.842; with human OX40-ECD.His A150G, 0.96; with human OX40-ECD.His L149A, 1; in the experiment with human OX40-ECD.His V53A, 0.896; with human OX40-ECD.His W144A it was 0.881; with human OX40-ECD.His L116A, 0.982. Moreover, the “Fold Change” value with human OX40-ECD.His N88A came to 0.429; with human OX40-ECD.His D168A, 0.983; with human OX40-ECD.His A173G, 0.993; with human OX40-ECD.His R41A, 0.958.
